Experimental data from patent publication US20050271676A1, “Inducing cellular immune responses to human immunodeficiency virus-1 using peptide and nucleic acid compositions” (Epimmune Inc., priority 1993, published 2005).
No end group written: not given here.

Experiments:
[1] = target: T1, HLA-DRB1*0301 (DR3) (Homo sapiens, UniProt P01903+P01911, A100K/A102G/A103R/A169T/F55Y/I96L/K41T/L162R/M171V/P40S/Q125H/Q178H/Q39Y/R42S/S66N/T106N/T262R/W38E/Y61H); experiment: purified HLA class II binding assay, DRB1*0301 (DR3), pH 4.5; details: for DR3 binding: HIV DR super motif peptides, unit not given
T1 construct: endogenous in cells; host or cells: MAT
T1 sequence (P01903 26-254 partner, other chains not shown): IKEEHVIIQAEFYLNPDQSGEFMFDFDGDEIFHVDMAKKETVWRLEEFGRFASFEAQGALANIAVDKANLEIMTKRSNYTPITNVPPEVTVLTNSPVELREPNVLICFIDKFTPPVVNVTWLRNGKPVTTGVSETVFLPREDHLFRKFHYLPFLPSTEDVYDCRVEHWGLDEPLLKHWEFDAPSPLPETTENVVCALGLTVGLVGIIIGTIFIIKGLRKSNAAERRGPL

[2] = target: T2, HLA-DRB1*0401 (DR4w4) (Homo sapiens, UniProt P01903+P01911, A100K/A169T/F76Y/I96L/K127E/L162R/M171V/N62H/P40V/Q125Y/R42H/S133A/S149N/S66Y/V115G/V209L/W38E); experiment: purified HLA class II binding assay, DRB1*0401 (DR4w4); details: for DR4w4 binding: HIV DR super motif peptides, unit not given
T2 construct: endogenous in cells; host or cells: Preiss
T2 sequence (P01903 26-254 partner, other chains not shown): as above

[3] = target: T3, HLA-DRB1*1101 (DR5w11) (Homo sapiens, UniProt P01903+P01911, A100R/A169T/A87E/I96F/K41T/L162R/M171V/P40S/Q125H/Q178H/Q39Y/Q99D/R42S/S66Y/T262R/V115G/W38E); experiment: biochemical; assay type: binding
T3 construct: endogenous in cells
T3 sequence (P01903 26-254, other chains not shown): as the sequence (P01903 26-254 partner, other chains not shown) above

[4] = target: T4, HLA-DRB5*0101 (DR2w2β2) (Homo sapiens, UniProt P01903+Q30154); experiment: biochemical; assay type: binding
T4 construct: expressed in transfected cells

[5] = target: T5, HLA-A*0301 (Homo sapiens, UniProt P04439); experiment: purified HLA class I binding assay, A*0301
T5 construct: endogenous in cells; host or cells: GM3107

[6] = target: HLA-A*1101 (Homo sapiens, UniProt P04439, A114D/D185E/E176A/F33Y/L180Q/S129P/T187R); experiment: purified HLA class I binding assay, A*1101
[7] = target: HLA-A*3101 (Homo sapiens, UniProt P04439, A270S/D185E/E176V/E277Q/F33T/G231S/G80R/H175R/I121M/I218V/I322F/K168Q/L300P/L318F/M331R/P217A/Q94H/R138Q/T323A/T345S/T97I/V358M); experiment: purified HLA class I binding assay, A*3101
[8] = target: HLA-A*3301 (Homo sapiens, UniProt P04439, A270S/D185E/E176V/E277Q/E87N/F33T/G231S/H175R/I121M/I218V/I322F/K168Q/K210R/L300P/L318F/M331R/P217A/Q86R/Q94H/R138Q/T323A/T345S/T97I/V358M/Y195H); experiment: purified HLA class I binding assay, A*3301
[9] = target: T6, HLA-DRB1*0901 (DR9) (Homo sapiens, UniProt P01903+P01911, A100R/A103E/D57H/D86V/F55Y/F60I/F76Y/I96F/K127E/L162R/M171V/P40D/Q125H/Q99R/R33Q/R42F/S133A/S66N/T210M/V115G/W38K/Y107V/Y59G/Y89S); experiment: biochemical; assay type: binding
T6 construct: endogenous in cells

[10] = target: T7, HLA-DRB1*1201 (DR5w12) (Homo sapiens, UniProt P01903+P01911, A100R/A169T/D57E/D86V/F55L/H45Y/K41T/L162R/M171V/P40S/Q125H/Q178H/Q39Y/Q99D/R42G/S66L/T262R/V114A/V67L/W38E/Y59H/Y61H/Y89S); experiment: purified HLA class II binding assay, DRB1*1201 (DR5w12); details: for DR5w12 binding: HIV DR super motif peptides, unit not given
T7 construct: endogenous in cells

[11] = target: HLA-DRB1*1302 (DR6w19) (Homo sapiens, UniProt P01903+P01911, A100E/A169T/K41T/L162R/M171V/P40S/Q125H/Q178H/Q39Y/Q99D/R42S/S66N/T262R/V115G/W38E/Y61H); experiment: purified HLA class II binding assay, DRB1*1302 (DR6w19); details: for DR6w19 binding: HIV DR super motif peptides, unit not given
[12] = target: T8, HLA-DRB1*1501 (DR2w2β1) (Homo sapiens, UniProt P01903+P01911); experiment: purified HLA class II binding assay, DRB1*1501 (DR2w2β1); details: for DR2 wβ1 binding: HIV DR super motif peptides, unit not given
T8 construct: expressed in transfected cells

[13] = target: HLA-A*0101 (Homo sapiens, UniProt P04439, A114D/A174V/A182V/D101N/D185E/E176A/E190D/L180R/Q94H/R68K/S129P/T187R/V100A/V91M/W191G); experiment: biochemical; assay type: binding
[14] = target: HLA-B*5401 (Homo sapiens, UniProt P01889, A329T/C349S/D138N/D201E/E176V/E187T/E204Q/E69G/I76V/K202T/L119W/R155S/R180L/S121T/S35A/S48A/V127L/V306I/V36M/Y140L); experiment: biochemical
[15] = target: HLA-A*6801 (Homo sapiens, UniProt P04439, A269V/D185E/E176V/E277Q/E87N/F33Y/G231S/I121M/I166T/I218V/L180W/L300P/L318F/N151K/P208A/P217A/Q86R/R169H/T345S); experiment: purified HLA class I binding assay, A*6801
[16] = target: T9, HLA-DRB1*0701 (DR7) (Homo sapiens, UniProt P01903+P01911, A100R/A102G/A103Q/D57E/D86V/E43K/F76Y/K127E/L162R/M171V/P40G/Q125H/Q99D/R33Q/R42Y/R54Q/S133A/S66F/T210M/V115G/Y107V/Y59L/Y89S); experiment: biochemical; assay type: binding
T9 construct: endogenous in cells; host or cells: Pitout

[17] = target: T10, HLA-DRB1*0802 (DR8w2) (Homo sapiens, UniProt P01903+P01911, A100R/A103L/A169T/F76Y/H45Y/I96F/K41T/L162R/M171V/P40S/Q125H/Q178H/Q39Y/Q99D/R218S/R42G/S66Y/V115G/W38E); experiment: biochemical; assay type: binding
T10 construct: endogenous in cells

[18] = Table XXb, HIV DR 3a motif peptides
[19] = HIV A03 supermotif peptides, binding value, no unit given
[20] = Table IX, HIV A03 super motif peptides, binding value, unit not given
[21] = HIV A03 supermotif peptides, Table IX, unit not given

## PPVVAKEIVASCDKC
[1]; [18]
  DR3 binding information: −0.0130
[2]; [18]
  DR4w4 binding information: 0.0085
[3]
  DR5w11 binding information: 0.0006
[4]
  DR2w2β2 binding information: −0.0021

## TTLFCASDAK [1273.07]
[5]
  IC50: 120 nM
[6]
  IC50: 27.3 nM
[7]
  IC50: 9470 nM
[8]
  IC50: 14500 nM

## CC[C@H](C)[C@H](NC(=O)CNC(=O)[C@H](CCCCN)NC(=O)[C@H](Cc1c[nH]cn1)NC(=O)[C@H](C)NC(=O)[C@@H]1CCCN1C(=O)[C@@H](NC(=O)[C@H](Cc1c[nH]c2ccccc12)NC(=O)[C@H](C)NC(=O)[C@H](CC(C)C)NC(=O)[C@H](Cc1ccc(O)cc1)NC(=O)[C@@H](NC(=O)[C@@H](N)CCCCN)C(C)C)C(C)C)C(=O)NCC(=O)NCC(=O)O [Peptide 1280.03]
[1]
  IC50: > 20000 nM
[9]
  IC50: 250 nM
[3]
  IC50: 71 nM
[10]
  IC50: 12600 nM
[11]
  IC50: 2500 nM
[12]
  IC50: 25 nM
[4]
  IC50: 24 nM

## NTPVFAIKK [1273.02]
[6]
  IC50: 100 nM
[7]
  IC50: 30000 nM
[8]
  IC50: 48300 nM

## LVAVIIVASGY
[13]
  A*0101 (binding affinity ratio): 0.0390
  A*0101 (binding information): 0.0390

## IPIHYCAPA [1296.01]
[14]
  IC50: 3.7 nM

## KLAGRWPVK [1069.44]
[5]
  IC50: 8.5 nM
[7]
  IC50: 500 nM
[8]
  IC50: 72500 nM
[15]
  IC50: 80000 nM

## EVNIVTDSQY [Peptide 1.0431]
[13]
  IC50: 472 nM

## CC[C@H](C)[C@H](NC(=O)[C@H](C)N)C(=O)N[C@@H](Cc1ccccc1)C(=O)N[C@@H](CCC(N)=O)C(=O)N[C@@H](CO)C(=O)N[C@@H](CO)C(=O)N[C@@H](CCSC)C(=O)N[C@H](C(=O)N[C@@H](CCCCN)C(=O)O)[C@@H](C)O [Peptide 966.01]
[5]
  IC50: 10 nM
[6]
  IC50: 10 nM
[7]
  IC50: 12000 nM
[8]
  IC50: 96700 nM

## IKKEKVYLA
[16]
  DR7 binding information: −0.0005
[17]
  DR8w2 binding information: −0.0015
[9]
  DR9 binding information: 0.0011
[11]; [18]
  DR6w19 binding information: −0.0003

## VTVYYGVPVWKEATI
[2]
  DR4w4 binding: 0.0071
[16]
  DR7 binding: 0.0160
[3]
  DR5w11 binding: 0.0021
[4]
  DR2w2β2 binding: 0.0270

## IVIWGKTPK [1193.0200]
[6]
  IC50: 16.2 nM
[7]
  IC50: 18.2 nM
[8]
  IC50: 96.7 nM

## KIQNFRVYYR [1211.32]
[7]
  IC50: 2.7 nM
[8]
  IC50: 341 nM

## CC[C@H](C)[C@H](NC(=O)[C@H](Cc1ccccc1)NC(=O)[C@@H](NC(=O)[C@H](C)N)C(C)C)C(=O)N[C@@H](Cc1c[nH]cn1)C(=O)N[C@@H](CC(N)=O)C(=O)N[C@@H](Cc1ccccc1)C(=O)N[C@@H](CCCCN)C(=O)N[C@@H](CCCNC(=N)N)C(=O)O [1193.03]
[5]
  IC50: 64.7 nM
[6]
  IC50: 3.3 nM
[7]
  IC50: 5.1 nM
[8]
  IC50: 107 nM

## NNLLRAIEAQQIILLQ
[2]
  DR4w4 binding: 0.0150
[16]
  DR7 binding: 0.0150

## ILKEVYIIGVY
[13]
  A*0101 (binding information): 0.0017

## QHLLQLTVWGIKQLQ [Peptide 27.0297]
[1]
  IC50: > 20000 nM
[16]
  IC50: 44 nM
[17]
  IC50: 907 nM
[11]
  IC50: 350 nM
[12]
  IC50: 21 nM
[4]
  IC50: 690 nM

## QKEPPFLWMG
[13]
  A*0101 (binding affinity ratio): 0.0004

## TIKIGGQLK [1273.05]
[5]
  IC50: 40.7 nM
[7]
  IC50: 18000 nM
[8]
  IC50: 36300 nM

## SPEVIFMFSALSEGA
[1]
  DR3 binding: −0.0043
[2]
  DR4w4 binding: 0.1600
[16]
  DR7 binding: −0.0007
[17]
  DR8w2 binding: 0.0130
[9]
  DR9 binding: 0.0130
[3]
  DR5w11 binding: 0.0075
[10]
  DR5w12 binding: −0.0045
[11]
  DR6w19 binding: 0.0007
[12]
  DR2 wβ1 binding: 0.0280
[4]
  DR2w2β2 binding: 0.0034

## KLTEERWNK
[5]; [19]
  A*0301 binding information: 0.0130
[6]; [19]
  A*1101 (binding information): 0.2700
[7]; [19]
  A*3101 binding information: 0.0680
[15]; [19]
  A*6801 binding information: 0.0002

## YLAWVPAIIK
[5]; HIV A03 motif peptides, Table XVI, column A0301, unit not given
  A0301 binding: 0.0770
[5]; [20]
  A*0301 binding information: 0.0770
[6]; [20]
  A*1101 (binding information): 0.0570
[6]; binding value to purified HLA-A*1101 in Table XVII, unit not given
  A*1101 (HIV A11 Motif Peptides with Binding Information): 0.0570
[7]; [20]
  A*3101 binding information: 0.0550
[15]; [20]
  A*6801 binding information: 4.0000

## DIQIKELQK
[5]; [20]
  A*0301 binding information: 0.0009
[6]; [20]
  A*1101 (binding information): 0.0006
[7]; [20]
  A*3101 binding information: 0.0006
[15]; [20]
  A*6801 binding information: 0.0001

## ASGYIEAEVIPAFTG
[1]
  DR3 binding: −0.0043
[2]
  DR4w4 binding: 0.2300
[16]
  DR7 binding: 0.0710
[17]
  DR8w2 binding: −0.0003
[9]
  DR9 binding: 0.0320
[3]
  DR5w11 binding: 0.0020
[10]
  DR5w12 binding: −0.0045
[11]
  DR6w19 binding: 0.0400
[12]
  DR2 wβ1 binding: −0.0003
[4]
  DR2w2β2 binding: −0.0021

## VIFMFSALSEGATPQ
[2]
  DR4w4 binding: 0.0058
[16]
  DR7 binding: −0.0007
[3]
  DR5w11 binding: −0.0010
[4]
  DR2w2β2 binding: −0.0014

## VTVLDVGDAY [Peptide 1069.26]
[13]
  IC50: 439 nM

## VMIVWQVDR [Peptide 1273.08]
[6]
  IC50: 273 nM
[7]
  IC50: 3.8 nM
[8]
  IC50: 5.3 nM

## QMVIIQAISPR
[5]; HIV A03 motif peptides, Table XVI, binding value unit not given
  A0301 (binding information): 0.0260
[5]; [21]
  A*0301 binding information: 0.0260
[6]; [21]
  A*1101 (binding information): 0.0010
[7]; [21]
  A*3101 binding information: 0.0740
[15]; [21]
  A*6801 binding information: 0.0430
